Key:
MS2 coat protein [1] = assay: apparent KD of MS2 coat protein, switch ON state; designed switch direction (-1 OFF switch, 1 ON switch): -1; higher = weaker reporter binding; conditions: FMN input: 0 or 200 uM; Eterna round: R93 (includes R88 designs)
In short: (§1)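 The designed RNA switches were transcribed on-chip from Illumina sequencing clusters. In 100 mM Tris-HCl pH 7.5, 80 mM KCl and 4 mM MgCl2, without or with constant ligand, they were titrated with SNAP-549-labelled MS2 coat protein from 0.7 or 1.5 nM to 3 µM in twofold steps. Apparent KD is the per-design median of normalised cluster binding-curve fits.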

MS2 coat protein [2] = assay: apparent KD of MS2 coat protein, switch OFF state (with FMN for OFF switches, without FMN for ON switches); designed switch direction (-1 OFF switch, 1 ON switch): -1; higher = weaker reporter binding; conditions: FMN input: 0 or 200 uM; Eterna round: R93 (includes R88 designs)
In short: as §1

| Sequence | apparent KD of MS2 coat protein (MS2 coat protein [1]) | apparent KD of MS2 coat protein (MS2 coat protein [2]) |
| --- | --- | --- |
| AGCACGUCAGGAUAUACGAAAAAAAAGGGUAAAAAAAACACACAUGAGGAUCACCCAUGUAGAAGGGACAAGCA [Diamond 94] | 0.0668 µM | 0.0868 µM |
| AGCUAGAGAGGAUAUACAUGGAAAAAAAAAGUCUGAUCCCUACAUGAGGAUCACCCAUGUAGAAGGCUCUGGCA [Ex2 Design 158: Sub-opt 22] | 0.0235 µM | 0.013 µM |
| AGCUAGCGAGGAUAUACGAACAUGUCAAAAGACGUGAAGGGACAUGAGGAUCACCCAUGUAGAAGGCGCUAGCA [JL 74% mod 5] | 0.0411 µM | 0.144 µM |
| AGCUAGUCAGGAUAUACAAACAUGUCAAAAGACGUGAAGGGACAUGAGGAUCACCCAUGUAGAAGGGACUAGCA [Web Mod 74% 2] | 0.0522 µM | 0.217 µM |
| AGCUAGUCAGGAUAUACGCAAACGAACGAAGCUGAGAAGGGACAUGAGGAUCACCCAUGUAGAAGGGACUAGCA [Diamond 32] | 0.0253 µM | 0.0556 µM |
| AGCUAGUGAGGAUAUACGAACAUGUCAAAAGACGUGAAGGAACAUGAGGAUCACCCAUGUAGAAGGCACUAGCA [Mat - Exclusion 2 - JL-Eli mod - D54] | 0.0172 µM | 0.0146 µM |
| AGGAAACAUGAGGAUCACCCAUGUGAGGAUAUUUGAAAGAAAAGAAAAGAAAGAAGAAGAAGAAGGCACAAGAA [Merneith] | 0.0176 µM | 0.0205 µM |
| AGGGAACAUGAGGAUCACCCAUGUGAGGAUAUGCUAUGGAAAUAAAAAAUAAAACAUAGCAGAAGGCAUAAAAA [Mat - Exclusion 1 - Eli mod - D39] | 0.0476 µM | 0.0461 µM |
| AGUAUCACAGGAUAUACAUAGGUGAAAAAAGUAAAUCCACUACAUGAGGAUCACCCAUGUAGAAGGGUGAUACA [Ex2 Design 177: Random 4B] | 0.0699 µM | 0.0622 µM |
| AGUCCAGAAGGAUAUACAUAGGUGAAAAAAAAAAAAAAACUACAUGAGGAUCACCCAUGUAGAAGGUCUGGACA [Mod of Brourd] | 0.0586 µM | 0.0255 µM |
| AGUCGGCGAGGAUAUACAUGAGGAUCACCCAUGUGAGAGAAAAAAGUGAGUUAGACAUGUAGAAGGCGCUGACA [JL Lego Mod 8] | 0.054 µM | 0.0268 µM |
| AGUCUGAGAGGAUAUACAUGGGAAAAAAAAGUAAGAUCCCUACAUGAGGAUCACCCAUGUAGAAGGCUCUGACA [Ex2 Design 143: Sub-opt 7] | 0.0274 µM | 0.0179 µM |
| AGUUGGCGAGGAUAUACAUGAGGAUCACCCAUGUGAAAGAAAAACUCGAAAGAGAAAAGUAGAAGGCGCUGACA [Mat - Exclusion 3 - Eli mod - D93] | 0.0168 µM | 0.0376 µM |
| AGUUGGCGAGGAUAUACAUGAGGAUCACCCAUGUGAGAGAAAAAAGUGAGAAAGAAAUGUAGAAGGCGCUCACA [JL Lego Mod 13] | 0.0628 µM | 0.0375 µM |
| AGUUGGCGAGGAUAUACAUGAGGAUCACCCAUGUGAGAGAAUAAAGUGAGAAAGAAAAGUAGAAGGCGCUCACA [JL Lego Mod 16] | 0.0603 µM | 0.0451 µM |
| AUAAAUCGAGGAUAUACAUGAGGAUCACCCAUGUAAAAAAAAAAAAAAUCCUCAGGAAGUAGAAGGCGAAAUAA [JR_Exc003_Sub018] | 0.0117 µM | 0.0233 µM |
| AUAAAUCGAGGAUAUACAUGAGGAUCACCCAUGUAAAUAAAUAAAUAAUCCUCAGGAAGUAGAAGGCGAAAUAA [JR_Exc003_Sub019] | 0.0151 µM | 0.0272 µM |

| Sequence | apparent KD of MS2 coat protein (MS2 coat protein [1]) | apparent KD of MS2 coat protein (MS2 coat protein [2]) |
| --- | --- | --- |
| AUAAGUGCAGGAUAUACAAAAUGCUAGCGAAAGCUAGCAUAACAUGAGGAUCACCCAUGUAGAAGGGCACAAUA [Tetraloop hairpin BlockHead... 61% 1] | 0.0235 µM | 0.0184 µM |
| AUAGGCCAAGGAUAUACAUGAGGAUCACCCAUGUAAAUAACUCGAUCAAAAUAAACAAGUAGAAGGUGGAAUAA [JR_Exc003_Sub204] | 0.0251 µM | 0.0294 µM |
| AUAGGCCUAGGAUAUACAUGAGGAUCACCCAUGUAAACCGAUAGAUCACGGUAAACGUGUAGAAGGAGGAAUAA [JR_Exc003_Sub207] | 0.0244 µM | 0.0206 µM |
| AUAGGCCUAGGAUAUACAUGAGGAUCACCCAUGUAAAUAAAUCGAUCAAAAUAAACGUGUAGAAGGAGGAAUAA [JR_Exc003_Sub205] | 0.0335 µM | 0.0383 µM |
| AUCAUGUAAGGAUAUAAAAGAAAAGAAAAGAAAGAAAAGAAUUAGAAGGUACAUGAGGAUCACCCAUGUAAGAA [EteRNA is fun!] | 0.0303 µM | 0.0179 µM |
| AUCAUGUUAGGAUAUAUAAGAAAAGAAAAGAAAGAAAAGAAAUAGAAGGAACAUGAGGAUCACCCAUGUAAGAA [EteRNA is fun!] | 0.0175 µM | 0.0231 µM |
| AUCGAUCGAGGAUAUACAUGAGGAUCACCCAUGUAAAAAAAAAAAAAGGCCUCAGGACGUAGAAGGCGACGCAA [JR_Exc003_Sub402] | 0.0163 µM | 0.0226 µM |
| AUCUACCUAGGAUAUACAUGAGGAUCACCCAUGUACAGAUACAACUAGGGAAACACACGUAGAAGGAGGUAGAU [JR_Exc003_Sub1207] | 0.0156 µM | 0.0373 µM |
| AUUAUGUAAGGAUAUGUACGAACAACAAAACAAAUAACGGUACAGAAGGUACAUGAGGAUCACCCAUGUAUAAA [May 71] | 0.0236 µM | 0.0214 µM |
| CAGUACUGAGGAUAUACAUGAGGAUCACCCAUGUAUUCCAGCUAGGAAACUAGCAAAUGUAGAAGGCAGUACUG [Ex3: 825] | 0.014 µM | 0.0148 µM |
| CCAAGACAUGAGGAUCACCCAUGUGAGGAUAUAGGUGUAUGCAAAAAAAAGUUAAAAACUAGAAGGCACAGAAA [JR_Exc001_Sub306] | 0.0307 µM | 0.025 µM |
| CGCAAGUCAGGAUAUUCGACAGGUAAAUCAGUGGAUCAGAAGGAGAAGGGACAUGAGGAUCACCCAUGUAUGUA [JR_Exc004_Sub407] | 0.0494 µM | 0.0231 µM |
| CUCAAGUAAGGAUAUGUAAGAAAAGAAGAGAAAGAAAAGAAACAGAAGGUACAUGAGGAUCACCCAUGUAAGAA [EteRNA is fun!] | 0.0304 µM | 0.0282 µM |
| CUCAAGUGAGGAUAUACGAAUAGUAAGUAAGUAUAACAGACGUAGAAGGCACAUGAGGAUCACCCAUGUAAAUA [JR_Exc004_Sub303] | 0.0362 µM | 0.028 µM |
| CUCAAGUGAGGAUAUCAGUAGUAAAAAAAUAAAAUUACUACUGAGAAGGCACAUGAGGAUCACCCAUGUGUCUU [EX4 333: Super Stable 33] | 0.0141 µM | 0.0111 µM |
| CUCGUGUCAGGAUAUGGAAGGCCGUUUGAUUAACGAGGGUACUAGAAGGGACAUGAGGAUCACCCAUGUAAAAA [Maonis] | 0.0815 µM | 0.0904 µM |
| CUCUUGUCAGGAUAUCUAAGAAAAGAAAAGAAAGAAAAGAAAGAGAAGGGACAUGAGGAUCACCCAUGUAAGAA [EteRNA is fun!] | 0.0463 µM | 0.0424 µM |
